The assay deals with His-tagged recombinant Ebola virus glycoprotein (rGP) expressed in insect cells (Ebola virus (EBOV)) (UniProt Q05320). Put plainly: ELISA. Background: An ELISA detects its analyte on a solid surface through an enzyme-linked reagent.

With Fab-KZ52, the GP binding affinity (absorbance normalized by the negative control) amounted to 16.6; the absorbance signal ratio between positive binding samples and blanks was 10.2; the ratio of GP-binding affinity to HA-RBD affinity (GP/HA) stood at 3.91.
As to scFv-13C6, the GP binding affinity (absorbance normalized by the negative control) (normalized units) was 11.1; the absorbance signal ratio between positive binding samples and blanks came out at 19.1; the ratio of GP-binding affinity to HA-RBD affinity (GP/HA) amounted to 5.
As to scFv-13F6, the GP binding affinity (absorbance normalized by the negative control) (normalized units) came to 9.65; the absorbance signal ratio between positive binding samples and blanks was 13.9; the ratio of GP-binding affinity to HA-RBD affinity (GP/HA) is 4.48.

The record behind these values is publication PMC4619498.
